Source: patent US20260151508A1 (BEAM THERAPEUTICS, published 2026)

What was measured:
[1] = target: T1, PiM (wild type) human alpha-1 antitrypsin (AAT) protein, bacterially expressed (human, UniProt P01009 25-418); test: in vitro neutrophil elastase binding assay, bacterially expressed AAT
T1 construct: The signal peptide is left out here; also called PiM (WT) AAT; wild-type AAT

[2] = target: T2, PiM+Bystander (D365G) human alpha-1 antitrypsin (AAT) protein, bacterially expressed (human, UniProt P01009 25-418); test: as above
T2 construct: Wild-type AAT altered to include D365G; also called D365G AAT protein; AAT protein with a D365G alteration
T2 sequence (P01009 25-418 D365G): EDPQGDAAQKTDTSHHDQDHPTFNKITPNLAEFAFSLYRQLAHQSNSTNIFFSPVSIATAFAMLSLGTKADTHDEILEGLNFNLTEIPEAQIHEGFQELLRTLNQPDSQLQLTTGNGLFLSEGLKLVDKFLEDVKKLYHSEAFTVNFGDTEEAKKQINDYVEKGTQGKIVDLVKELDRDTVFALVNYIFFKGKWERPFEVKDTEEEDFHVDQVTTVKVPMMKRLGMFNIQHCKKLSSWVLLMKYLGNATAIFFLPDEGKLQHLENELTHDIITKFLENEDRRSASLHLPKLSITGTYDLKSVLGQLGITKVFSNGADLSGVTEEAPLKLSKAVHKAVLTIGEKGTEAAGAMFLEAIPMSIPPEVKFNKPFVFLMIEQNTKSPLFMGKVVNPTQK

T1 sequence (P01009 25-418): as the sequence (P01009 25-418 D365G) above, with G341D counted along it

B1: human neutrophil elastase (enzyme, UniProt P08246 30-247, looked up)
chain: IVGGRRARPHAWPFMVSLQLRGGHFCGATLIAPNFVMSAAHCVANVNVRAVRVVLGAHNLSRREPTRQVFAVQRIFENGYDPVNLLNDIVILQLNGSATINANVQVAQLPAQGRRLGNGVQCLAMGWGLLGRNRGIASVLQELNVTVVTSLCRRSNVCTLVRGRQAGVCFGDSGSPLVCNGLIHGIASFVRGGCASGLYPDAFAPVAQFVNWIDSIIQ
notes: also called HNE
binding result [1]: binds | binding result [2]: binds
